Measurements: the DeepSol protein solubility set

assay: soluble on expression in E. coli; label from the status in PepcDB or PDB records

Sequence	soluble on expression in E. coli
MRITDVRTAVVEANYDWTFVRIYTDEGLTGLGESFLAPGLTGIIRDLKPLLVGQDPLDVDRLFSRMRWAASGAGSVAGLVYNAISGIEAALWDLAGKHYGVPVFRLLGGRHRDRVRVYADCHAGEALEALSSVMIPRRPRWLSPAGAPPPAGDPVHGRAFGLEEPGEAFTPEMYAARAREVAAMGFTALKFDLDVPNPHTLDPHSGTLTHAEIRHMVSLVEAVREAVGDGVDIAFDLHWRYNVSDAVRLACELEPYGLMWLEDPVPPENVEALRRVTRSTRTPIASGENLYLRHGFREALERGALDIAAPDLQKCGGLLEGRRIADMADAHYVAVAPHCIASPIGTVAAAHVAAAVPNFLALEWHGMSVPFWEEMAAGFDGPVIRDGYIEVPEAPGLGVELNEEVARRYAREGEPFF	soluble
MSKKLTTAAGCPVAHNQNVQTAGKRGPQLLQDVWFLEKLAHFDREVIPERRMHAKGSGAYGTFTVTHDITKYTKAKIFSDIGKKTDMFARFSTVAGERGAADAERDIRGFSLKFYTEEGNWDLAGNNTPVFFLRDPLKFPDLNHAVKRDPRTNMRSAKNNWDFWTSLPEALHQVTIVMSDRGIPATYRHMHGFGSHTFSFINSDNERYWVKFHFVSQQGIKNLSDAEAGELVGNDRESHQRDLLDSIDNQDFPKWTLKVQIMPEADAATVPYNPFDLTKVWPHKDYPLIEVGEFELNRNPQNYFAEVEQAAFNPANVVPGISFSPDKMLQGRLFAYGDAQRYRLGVNHQHIPVNAPRCPVHSYHRDGAMRVDGNFGSTLGYEPNDQGQWAEQPDFSEPPLNLDGAAAHWDHREDEDYFSQPGDLFGLMTAEKQAILFDNTARNLNGVPKEIQLRHVTHCYKADPAYGEGIGKLLGFDISEYNS	soluble
MAKDIEISASESKFILEALRQNYRLDGRSFDQFRDVEITFGKEFGDVSVKMGNTKVHCRISCQIAQPYEDRPFEGLFVISTEISPMAGSQFENGNITGEDEVLCSRIIEKSVRRSGALDVEGLCIVAGSKCWAVRADVHFLDCDGGFIDASCIAVMAGLMHFKKPDITVHGEQIIVHPVNEREPVPLGILHIPICVTFSFFNPQDTEENIKGETNSEISIIDATLKEELLRDGVLTVTLNKNREVVQVSKAGGLPMDALTLMKCCHEAYSIIEKITDQILQLLKEDSEKRNKYAAMLTSENAREI	soluble
MDKIASDKDLREPDAGLLLNIFDLYYDLASAPAQYAAKRAHILEAAKKASTWHIRHVAPKYKNYVVVIGESARSDYMNVYGFPLPDTPFLSQTKGLLINGYQSTAHATNLSLPQTLGLPGEPNNNIVSLAKQAGFRTAWLSNQGMLGHFANEISTYALRSDYPWFTQRGDYGKSAGLSDRLLLPAFKRVLIGNAGTKPRLIVMHLMGSHSDFCTRLDKDARRFQYQTEKISCYVSTIAQTDKFLEDTVKILNENKESWSLVYFSDHGLMHVGKGGERTLTHGAWKRQSYGVPLVKISSDDTRREMIKVRRSAFNFLRGFGSWTGIETDELPDDGYDFWGNVPDVQGEGNNLAFIDGLPDDPAPWYAGKGKSTKNTSKK	not soluble
MVKVVVDASNVAYSTKNENSQPQMSNILAAVKSLEESGDEFVIIADASLRHDIDDKEKFEKLLESENVEEVPAGNDADHFILNIAHNEKAKILSNDKFRDYAAEFKNINSMRIPFVIENGRVTFGKPKSPKKDKNILQHISDEIIKELNFKRWEVYTGKEGLEISPLNIAKQAIIRIDNDNDTSSKLEKVFSKIPMFNKIVDMVDDVEVAAPYVIFVLVHPKDYKLAVKNAGNISVTVADRLRLEKKPLIAVRNDLFTRPGTFELNIMLADEVTEHAPYNVLVRVSTHDEVFIKKNSRNIASTIAGRLGSWKFPFVSVKPDMLLEKPGDFEIELEKGGSLDGLEHHHHHH	soluble
MQVMFYSPSGQKLFGENGSPAFLLKGGITDLKGAIEARTTVIPEVPGQVFDGVTIKPFTFGVTMVVYPTKEMPMEKAMRKTRQIFSAFDYSTCRIDGTGIPVGLKVRLDSIISAPSQDTAKEIAEEITITLAADEGIFWADRKEASGKIDIVNYGDCDLWPEYRWQKTTTITLPSGAKINLPETPTPRVLRTTRHQVSITDLDGKPDRELLKKLGTVWPEGVPRKETKTYEITQNGYIMWRIGYLDPWGL	not soluble
MKNDTAALAADIVDFWKKAGPDKWFDKDAAFDNHFHDRFRDAHFAAARRELDGWLEGAESSLALMLLLDQFPRNCFRGTAHMYATDPLARFFADEAIRRGHDQAVSEDLRVFFYLPFSHAEDIAAQQRACDLNQPLGGLYLHHAEEHRDIVERFGRFPHRNGILLRETTPEERQYLEEGGFSG	soluble
MGSDKIHHHHHHMIYMRLKLSFIYDGDKFQPNKHAVQGFIYNMLRGTEYEDRHNRRGFKFFTFSDVFRDSKGYYSLLIASPDSGFINALYLSLKDRDHVYIGKDEIKLVEVKKFKLKLKRAFQTGSPVVIYKDSRKNEYFKLHEHRDLLFFLQRLKENAEKKFNSFYGDEFHLEGLIFDRVIPKVRKNGKVDVYVKVVKNGVPFPVIGTNWELLEKERIKPEERRFYRFIMDCGLGEKNSLGFGFLNPIKGVKN	not soluble
MAIRVIGTGFGRTGTDSMREALTILGFGPCHHMSEVMGNEDQKRLWRALAKGAAPDWNQLFAGYASCIDWPSAHYWRDLIEFYPKARVILTYRSPESWWASFEKTILAGISQSTDQESLGLALISRQVFDGRPHDRANAIAVYEANVRAVIATVPPSRLLVHNLGDGWKPLCLHLDVPLEHHHHHH	not soluble
MDSTARGHAPLCRTSNQRGLGTRLNPYYQSTPHQPMVQSMSNPIGSYGEQGNAQIIGSSGQVLSTGPPPGLAPVQCNDFDSCYSSCDDISHPSLSRESSDPSKIDDDQTAPMIRYPAPEVVEFATKLGYSTEQLSHVLNTIGVDSRMDDVLSELVKMGLPGGKPENSGKSGSRNSPEPIMTSSASSSSASSSSSHRPIRQSVSIATSSPATSSSTPSKYNPDPSLRAVVVDGSNVAMLHGRKEVFSCAGLRECLNYFLERGHPEVLIFIPQYRREQPRSDSPITDQHILQEIERHIIYTPSRNVNGRRVVCHDDRYILRTAELKDAVIVSNDEYRDLTRENPAWRKIVEERLLMFTFVEDKSVF	not soluble
MGSDKIHHHHHHMLSALWVSKTGLSAQDMNLTTISNNLANVSTTGFKRDRAEFQDLLYQIRRQPGGQSTQDSELPSGLQLGTGVRVVGTQKIFTPGSLQTTEQPLDMAVNGRGFFQVLLPDGTVSYTRDGSFHLNSDGQIVTSNGFALEPAIVVPNETQTFTVGQDGTVSVTTTGNAQPQVIGNIQTADFINPAGLQAIGNNLFLETGSSGAPQVGTPGLNGLGTVAQNTLENSNVNVVEELVNMITTQRAYEMNSKVISTADQMLSFVTQNL	not soluble
MSLLKMYADKRGLKDIKSNMVMREFEEVFEKFKDWTEKIKQKYPNPDEILNLEKEEKWDFSDLFGEFLGDYRTVKSYHEFDKDNPYLPSDEFNKYFAAFSQIQEEIRKEKAEKKALEVQEEDLSNEVRKEPQIFSWEYGEGIQANLDYIFHLIKDLYNCDNEQDRQKVLDKIKTAIRTNPEIQVNEDILNEFIEDLGKSFEKEKLEEVWKTEGKLRECLKDFCKKKEESNKKKIINDFLVKGVFLVEWVADKQLNTAKKKGEYSPSWSDTEKLIWKEKSTNLPTMTEKDEDGNFKWRKLITDISEAFKNEGHHHHHH	soluble
MNDAPPFDLDAYLARIGYTGPRNASLDTLKALHFAHPQAIPFENIDPFLGRPVRLDLAALQDKIVLGGRGGYCFEHNLLFMHALKALGFEVGGLAARVLWGQSEDAITARSHMLLRVELDGRTYIADVGFGGLTLTAPLLLEPGREQKTPHEPFRIVEADDHFRLQAAIGGDWRSLYRFDLQPQYEVDYSVTNYFLSTSPTSHFLSSVIAARAAPDRRYALRGNRLSIHHLGGRTEQTEIATAADLADTLQGLLGIIIPDRTAFEAKVRETKIVETNA	soluble
VGKQLAALAALVGACMLAAGCTNVVDGTAVAADKSGPLHQDPIPVSALEGLLLDLSQINAALGATSMKVWFNAKAMWDWSKSVADKNCLAIDGPAQEKVYAGTGWTAMRGQRLDDSIDDSKKRDHYAIQAVVGFPTAHDAEEFYSSSVQSWSSCSNRRFVEVTPGQDDAAWTVADVVNDNGMLSSSQVQEGGDGWTCQRALTARNNVTIDIVTCAYSQPDLVAIGIANQIAAKVAKQ	not soluble
